# Measurements: patent US9952227B2, “Method for detecting bilirubin” (Research Foundation of the City University of New York, priority 2015, dated 2018)
# Where “and” joins values, the source holds several entries; their conditions need not be identical. Identical values can stand only once. Like-named read-outs stand apart in the source and are kept apart here.
# B1: UnaG: bilirubin inducible fluorescent protein from Anguilla japonica, novel member of the FABP family (protein, UniProt P0DM59 1-139, looked up)
# Bilirubin-inducible …: MVEKFVGTWKIADSHNFGEYLKAIGAPKELSDGGDATTPTLYISQKDGDKMTVKIENGPPTFLDTQVKFKLGEEFDEFPSDRRKGVKSVVNLVGEKLVYVQKWDGKETTYVREIKDGKLVVTLTMGDVVAVRSYRRATE
# B2: Chlopsid FP II: bilirubin-inducible fluorescent fatty acid-binding protein from Kaupichthys n. sp., SEQ ID NO: 2 (protein)
# chain: MFEDFLGTWECIDSQNFGAYLAAVGAPPVLSDRADATRPTVYFNRDGDKLSLKVEHGPPPLKDVILSFKLGEEFDEHPTDGRKCKTLVTFEGDKLLYLQKWDGKETVVVREIRDGNVVATLSHEGVVALRVYKKVAGPTA
# modifications: Kaupichthys hyoproroides
# B3: Chlopsid FP I: bilirubin-inducible fluorescent fatty acid-binding protein from Kaupichthys hyoproroides, SEQ ID NO: 1 (protein)
# chain: MFEDFLGTWKCIDSQNFGAYLAAIGAPPVLSERADATRPTVHFNRDGDKLSLKVEHGPPPLKDVLLSFKLGEEFDEHPTDGRKCKTLVTFEGDKLLYLQKWDGKETVVVREIRDGNVVATLSHEGVVALRVYKKVAGPTALE
# modifications: Kaupichthys hyoproroides
# Legend:
# [1] = reference fluorescent protein; cited from earlier work
# [2] = reported value for reference fluorescent protein; cited from earlier work
# [3] = Fluorescence quantum yield; assay type: physicochemical
# Protocol: The fluorescence quantum yield of Chlopsid FP I was determined to be 0.47. […] These values are close to the reported quantum yield for UnaG of 0.51 (Table 1). Two prolines in the Gly-Pro-Pro sequence motif were mutated to glycine.
# mammalian cells = assay: Fluorescence of expressed protein in mammalian cells upon addition of exogenous bilirubin; assay type: cell-based
# Source text: (§1) Hayashi and Toda reported that Anguilla japonica (heavily farmed in Japanese aquaculture and a historical staple of Japanese cuisine) was weakly green fluorescent. They purified a fluorescent protein from A. japonica muscle tissue and isolated and sequenced several peptide fragments. […] Then in 2013, Kumagai et al., published a full characterization of the fluorescent protein from A. japonica. […] The Kaupichthys hyoproroides and Kaupichthys n. sp. data was re-examined and found a single transcript in each of the two species' transcriptomes that encoded an FABP including the Gly-Pro-Pro insertion. […] These proteins, termed Chlopsid FP I and Chlopsid FP II, are orthologs of UnaG (FIG. 1). FIG. 1 depicts sequence alignment of fluorescent FABPs from eels with a non-fluorscent FABP from Kaupichthys hyoproroides (Chlopsid NFP) and human brain FABP-7. Areas of homology are identified with solid lines boxes. The GPP sequence motif is identified with a dotted lined box.
# E. coli = assay: Fluorescence of expressed protein in E. coli upon addition of exogenous bilirubin; assay type: cell-based
# Source text: as §1
# Protein Expression and Purification. Candidate ORFs were selected from eel transcriptome data containing an unusual sequence motif (Gly-Pro-Pro) on a loop between two beta sheets in the FABP sequence. […] Protein concentration was determined by A280 measurements, using calculated extinction coefficients of 15,300 M^−1 cm^−1 for Chlopsid FP I, and 16,600 M^−1 cm^−1 for Chlopsid FP II. […]
# [4] = Fluorescence excitation and emission spectra; assay type: physicochemical
# Protocol: In Chlopsid FP I and Chlopsid FP II this amino acid is a histidine. This difference in amino acid sequence can potentially explain the fluorescence shift, due to an increase in the π conjugation of the system.
# Fluorescence Spectroscopy: Fluorescence excitation and emission spectra were recorded using a F-7000 Hitachi Fluorescence Spectrometer.
# HEK293 cells = assay: Expression of Chlopsid FP I in HEK293 cells, single and two-photon imaging; assay type: cell-based
# Protocol: Expression in Mammalian Cells: Chlopsid FP I was expressed in mammalian cells (HEK293) without the addition of bilirubin. […] The two-photon excitation was fairly flat from 700-1000 nm with a peak at 860 nm and an unusual dip at 840 nm.
# Expression of Chlopsid FP I in HEK293 Cells: A pCS2+vector was used for cloning of Chlopsid FP I for expression in HEK293 cells (ATCC, USA) using Kpn-Sphl cloning sites. Plasmids were prepared by Genscript USA, Inc. The expression was driven in HEK293 cells (ATCC, USA) by CMV promotor. The HEK293 cell line was maintained in Dulbecco's Modified Eagle Medium (High Glucose) (DMEM) (Invitrogen, USA), supplemented with 10% fetal bovine serum (FBS) (Sigma-Aldrich, USA), in a 37° C. incubator with 5% CO2. Transient transfection was performed using 2 μg of DNA per 35 mm dish and 5 μg of Lipofectamine 2000 (Invitrogen, N.Y.). Cells were imaged on a custom-made 2-photon microscope using a Chameleon Ti-Sapphire laser (Coherent Inc, CA) and water immersion 20×/0.95 N.A. objective (Olympus, Japan). Images were taken using 850 nm laser light with power of 15 mW at the objective.
Molecule,Ex/Em maxima: emission maximum [1],Ex/Em maxima: excitation maximum [1],Fluorescence quantum yield [2],Fluorescence quantum yield [3],Fluorescence upon addition of exogenous bilirubin (mammalian cells),Fluorescence upon addition of exogenous bilirubin (E. coli),Ex/Em maxima: emission maximum [4],Ex/Em maxima: excitation maximum [4],Two-photon excitation dip (HEK293 cells; HEK293) [nm],"Two-photon excitation peak (HEK293 cells; HEK293, excitation fairly flat from 700-1000 nm) [nm]","Fluorescence of expressing cells (HEK293 cells; HEK293, without the addition of bilirubin, single and two-photon imaging)"
B1,523 nm and 530 nm,489 nm and 498 nm,0.51,,,,,,,,
B2,,,,0.37,strong green fluorescence,strong green fluorescence,527 nm and 524 nm,498 nm and 490 nm,,,
B3,,,,0.47,strong green fluorescence,strong green fluorescence,527 nm and 524 nm,498 nm and 490 nm,840,860,bright fluorescence
